Reference: patent US20190185516A1 (YISSUM RESEARCH DEVELOPMENT COMPANY OF THE HEBREW …, published 2019)
Numbered stars: 1 amine (or outer) side, 2 acyl side, 3 side chain; on linkers, the order of the positions; unused ones are H or OH. Bridge positions count the residues as written; N and C are the ends. Square brackets hold non-standard residues; d marks the D form. Ends that are not written are not given here. CO = O=C([*:1])[*:2]; Nlys = NCCCCNCC(=O)O

B1: backbone cyclic peptide 4×4MyDI (Formula IV, m=4, n=4, Z=Trp) (peptide)
peptide: W[Nlys]RDVL[Nlys]GT
modifications: bridge 2-7 via CO; also: backbone cyclization: two amine-terminated 4-methylene arms on Gly2 and Gly7 joined by a urea bond

molecular target: MyD88, endogenous, in human cell lines (HeLa, U937, THP-1) (human, UniProt Q99836 1-296); experiment: cell-based or functional assay
Sequence (Q99836 whole entry): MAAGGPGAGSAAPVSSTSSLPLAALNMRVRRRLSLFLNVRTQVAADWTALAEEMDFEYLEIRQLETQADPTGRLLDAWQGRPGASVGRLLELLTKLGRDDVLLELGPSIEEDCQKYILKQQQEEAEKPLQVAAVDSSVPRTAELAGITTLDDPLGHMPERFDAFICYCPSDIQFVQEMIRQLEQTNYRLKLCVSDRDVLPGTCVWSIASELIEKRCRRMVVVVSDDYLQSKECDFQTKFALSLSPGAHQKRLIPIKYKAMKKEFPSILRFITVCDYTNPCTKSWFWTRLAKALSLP

| Binder | Percent p65 nuclear translocation in HeLa cells, IL-1β [%] |
| --- | --- |
| RDVLPGT [MyD88 inhibitor linear peptide RDVLPGT] | 20 |
| PTDLVRG [scrambled version of the linear MyD88 inhibitor peptide (PTDLVRG)] | 91 |
| B1 | 27 |
